From publication PMC7717172

Biological target: inactive Minerva virus protease (norovirus GII.4 NS6 protease, C139A) (norovirus GII.4 (Minerva virus))
Test: crystal structure

Substance: inactive Minerva virus protease (norovirus GII.4 NS6 protease, C139A) (enzyme)
- stoichiometry N: 2
